Experiments:
Assay in all cases: peptide microarray of 8mer LY75 peptides, LY75_A1 at 1 µg/mL, anti-human IgG Alexa 647
PIDDHFTY = target: T1, PIDDHFTY
T1 construct: 8mer of LY75 on the peptide microarray, chart Region 4
T1 peptide: PIDDHFTY
Method: (§1) The peptide microarray analysis was performed by LC Sciences, Houston Tex., in brief the method comprised the following steps:—Contiguous 8mer peptides of LY75 protein having […] spanning residues 216 to 1666 of the full length LY75 protein were synthesized and immobilized on a microarray chip. The chip comprised three panels such that the experiment was performed in triplicate. The microarray was addressed with LY75_A1 to identify the peptides to which the antibody bound. The binding assay was performed under the following conditions:—
(§2) The microarray comprising the contiguous peptides in triplicate was washed with 1 mL of binding buffer at 4° C. for 20 min. It was then incubated with 1 μg/mL LY75_A1 in binding buffer (pH 7.0) at 4° C. for 2 hrs. The array was again washed with 0.5 mL of washing buffer at 4° C. for 30 min then incubated with 25 ng/mL anti-human IgG Alexa 647 conjugate in binding buffer (pH 7.0) at 4° C. for 1 hr. The array was again washed with 0.5 mL of washing buffer at 4° C. for 30 min.

VSLCQKYS = target: T2, VSLCQKYS
T2 construct: 8mer of LY75 on the peptide microarray, chart Region 6
T2 peptide: VSLCQKYS
Method: as §1, §2

LSRLTYSS = target: T3, LSRLTYSS
T3 construct: 8mer of LY75 on the peptide microarray, chart Region 9
T3 peptide: LSRLTYSS
Method: as §1, §2

YPWHRFPV = target: T4, YPWHRFPV
T4 construct: 8mer of LY75 on the peptide microarray, chart Region 4
T4 peptide: YPWHRFPV
Method: as §1, §2

PWHRFPVT = target: T5, PWHRFPVT
T5 construct: 8mer of LY75 on the peptide microarray, chart Region 4
T5 peptide: PWHRFPVT
Method: as §1, §2

HRFPVTFG = target: T6, HRFPVTFG
T6 construct: 8mer of LY75 on the peptide microarray, chart Region 4
T6 peptide: HRFPVTFG
Method: as §1, §2

FVSLCQKY = target: T7, FVSLCQKY
T7 construct: 8mer of LY75 on the peptide microarray, chart Region 6
T7 peptide: FVSLCQKY
Method: as §1, §2

DREFIYLR = target: T8, DREFIYLR
T8 construct: 8mer of LY75 on the peptide microarray, chart Region 3
T8 peptide: DREFIYLR
Method: as §1, §2

SCSERHFV = target: T9, SCSERHFV
T9 construct: 8mer of LY75 on the peptide microarray, chart Region 6
T9 peptide: SCSERHFV
Method: as §1, §2

TSCSERHF = target: T10, TSCSERHF
T10 construct: 8mer of LY75 on the peptide microarray, chart Region 6
T10 peptide: TSCSERHF
Method: as §1, §2

LTYSNFHP = target: T11, LTYSNFHP
T11 construct: 8mer of LY75 on the peptide microarray, chart Region 5
T11 peptide: LTYSNFHP
Method: as §1, §2

WHRFPVTF = target: T12, WHRFPVTF
T12 construct: 8mer of LY75 on the peptide microarray, chart Region 4
T12 peptide: WHRFPVTF
Method: as §1, §2

ELTYSNFH = target: T13, ELTYSNFH
T13 construct: 8mer of LY75 on the peptide microarray, chart Region 5
T13 peptide: ELTYSNFH
Method: as §1, §2

TYSNFHPL = target: T14, TYSNFHPL
T14 construct: 8mer of LY75 on the peptide microarray, chart Region 5
T14 peptide: TYSNFHPL
Method: as §1, §2

YKSDQALH = target: T15, YKSDQALH
T15 construct: 8mer of LY75 on the peptide microarray, chart Region 10
T15 peptide: YKSDQALH
Method: as §1, §2

DHFTYSRY = target: T16, DHFTYSRY
T16 construct: 8mer of LY75 on the peptide microarray, chart Region 4
T16 peptide: DHFTYSRY
Method: as §1, §2

YLNNLYKI = target: T17, YLNNLYKI
T17 construct: 8mer of LY75 on the peptide microarray, chart Region 7
T17 peptide: YLNNLYKI
Method: as §1, §2

SRWIQYKG = target: T18, SRWIQYKG
T18 construct: 8mer of LY75 on the peptide microarray, chart Region 10
T18 peptide: SRWIQYKG
Method: as §1, §2

EFIYLRPF = target: T19, EFIYLRPF
T19 construct: 8mer of LY75 on the peptide microarray, chart Region 3
T19 peptide: EFIYLRPF
Method: as §1, §2

HFTYSRYP = target: T20, HFTYSRYP
T20 construct: 8mer of LY75 on the peptide microarray, chart Region 4
T20 peptide: HFTYSRYP
Method: as §1, §2

YDDREFIY = target: T21, YDDREFIY
T21 construct: 8mer of LY75 on the peptide microarray, chart Region 3
T21 peptide: YDDREFIY
Method: as §1, §2

YKGHCYKS = target: T22, YKGHCYKS
T22 construct: 8mer of LY75 on the peptide microarray, chart Region 10
T22 peptide: YKGHCYKS
Method: as §1, §2

QYKGHCYK = target: T23, QYKGHCYK
T23 construct: 8mer of LY75 on the peptide microarray, chart Region 10
T23 peptide: QYKGHCYK
Method: as §1, §2

Measured: binding result

B1: LY75_A1 (antibody, V domains shown)
VH: EVQLVESGGGLVKPGGSLRLSCAASGFTYSNAWMSWVRQAPGKGLEWVGRIKSKTDGGTTDYAAPVQGRFTISRDDSKNTLYLQMNSLKTEDTAVYYCTIFGVVSFDYWGQGTLVTVSS
VL: DVQMTQSPSSLSASVGDRVTITCRASQSISDYLSWYQQRPGKAPNLLIYAASNLKTGVPSRFSGSGSGTDFTLTISTLQPEDFATYYCQQSYRSPWTFGQGTKVEIKR
notes: detected with anti-human IgG in the microarray; also called antibody LY75_A1; LY75_A1 monoclonal antibody
binds: all assays above
